Data published in the supplement of paper PMC10567573.

B1: INTS4 (parent)
chain: TIIEPAGESDNPLRFTSGLVVALD
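Also: lentivirally expressed fusions sorted by FACS into six bins by GFP to DsRed ratio, PSI derived from sequencing read proportions per bin multiplied by bin number.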

Variants of: B1
Assay: protein stability index of a GFP-peptide fusion (GPS, HEK-293T) (PSI 1-6); higher = more stable
Details: c terminus: a fixed tail appended
For TIIEPAGESDNPLRFTSGLVPALD [V21P], the protein stability index was 3.93.
With TIIEPAGESDNPLRFTSGLVYALD [V21Y] the protein stability index was 3.
TIIEPAGESDNPLRFTSGLVIALD [V21I] showed a protein stability index of 2.78.
TIIEPAGESDNPLRFTSGLVAALD [V21A] showed a protein stability index of 3.36.
For TIIEPAGESDNPLRFTSGLVHALD [V21H], the protein stability index was 3.27.
TIIEPAGESDNPLRFTSGLVTALD [V21T] gave a protein stability index of 3.67.
TIIEPAGESDNPLRFTSGLVGALD [V21G] gave a protein stability index of 3.65.
In the case of TIIEPAGESDNPLRFTSGLVCALD [V21C], the protein stability index is reported as 3.48.
TIIEPAGESDNPLRFTSGLVEALD [V21E] gave a protein stability index of 4.5.
Variant TIIEPAGESDNPLRFTSGLVKALD [V21K] has a protein stability index of 3.45.
TIIEPAGESDNPLRFTSGLVDALD [V21D] gave a protein stability index of 4.92.
In the case of TIIEPAGESDNPLRFTSGLVLALD [V21L], the protein stability index is reported as 2.89.
Variant TIIEPAGESDNPLRFTSGLVSALD [V21S] has a protein stability index of 3.51.
For TIIEPAGESDNPLRFTSGLVWALD [V21W], the protein stability index was 2.16.
Variant TIIEPAGESDNPLRFTSGLVMALD [V21M] has a protein stability index of 2.84.
In the case of TIIEPAGESDNPLRFTSGLVQALD [V21Q], the protein stability index is reported as 3.71.
TIIEPAGESDNPLRFTSGLVRALD [V21R] gave a protein stability index of 3.67.
TIIEPAGESDNPLRFTSGLVNALD [V21N] gave a protein stability index of 3.63.
For TIIEPAGESDNPLRFTSGLVFALD [V21F], the protein stability index was 2.37.
With TIIEPAGESDNPLRFTSGLVVDLD [A22D] the protein stability index was 3.8.
In the case of TIIEPAGESDNPLRFTSGLVVILD [A22I], the protein stability index is reported as 1.61.
Work on TIIEPAGESDNPLRFTSGLVVELD [A22E] yielded a protein stability index of 4.07.
For TIIEPAGESDNPLRFTSGLVVPLD [A22P], the protein stability index was 3.58.
TIIEPAGESDNPLRFTSGLVVMLD [A22M] showed a protein stability index of 2.26.
TIIEPAGESDNPLRFTSGLVVGLD [A22G] gave a protein stability index of 2.85.
Variant TIIEPAGESDNPLRFTSGLVVNLD [A22N] has a protein stability index of 3.18.
TIIEPAGESDNPLRFTSGLVVKLD [A22K] showed a protein stability index of 3.21.
Work on TIIEPAGESDNPLRFTSGLVVFLD [A22F] yielded a protein stability index of 2.03.
With TIIEPAGESDNPLRFTSGLVVLLD [A22L] the protein stability index was 1.73.
With TIIEPAGESDNPLRFTSGLVVCLD [A22C] the protein stability index was 2.6.
TIIEPAGESDNPLRFTSGLVVHLD [A22H] showed a protein stability index of 2.78.
TIIEPAGESDNPLRFTRGLVVALD [S17R] showed a protein stability index of 2.05.
TIIEPAGESDNPLRFTVGLVVALD [S17V] gave a protein stability index of 1.73.
TIIEPAGESDNPLRFTTGLVVALD [S17T] showed a protein stability index of 2.92.
TIIEPAGESDNPLRFTQGLVVALD [S17Q] showed a protein stability index of 3.06.
For TIIEPAGESDNPLRFTYGLVVALD [S17Y], the protein stability index was 2.15.
Variant TIIEPAGESDNPLRFTWGLVVALD [S17W] has a protein stability index of 2.14.
For TIIEPAGESDNPLRFTSHLVVALD [G18H], the protein stability index was 2.21.
In the case of TIIEPAGESDNPLRFTSELVVALD [G18E], the protein stability index is reported as 3.15.
In the case of TIIEPAGESDNPLRFTSMLVVALD [G18M], the protein stability index is reported as 1.67.
TIIEPAGESDNPLRFTSFLVVALD [G18F] gave a protein stability index of 1.41.
For TIIEPAGESDNPLRFTSVLVVALD [G18V], the protein stability index was 2.15.
Variant TIIEPAGESDNPLRFTSILVVALD [G18I] has a protein stability index of 2.4.
Work on TIIEPAGESDNPLRFTSALVVALD [G18A] yielded a protein stability index of 2.42.
TIIEPAGESDNPLRFTSLLVVALD [G18L] showed a protein stability index of 1.55.
With TIIEPAGESDNPLRFTSQLVVALD [G18Q] the protein stability index was 2.7.
TIIEPAGESDNPLRFTSDLVVALD [G18D] showed a protein stability index of 3.67.
Variant TIIEPAGESDNPLRFTSSLVVALD [G18S] has a protein stability index of 2.83.
With TIIEPAGESDNPLRFTSKLVVALD [G18K] the protein stability index was 2.77.
TIIEPAGESDNPLRFTSPLVVALD [G18P] showed a protein stability index of 2.59.
Variant TIIEPAGESDNPLRFTSRLVVALD [G18R] has a protein stability index of 2.24.
TIIEPAGESDNPLRFTSTLVVALD [G18T] showed a protein stability index of 2.51.
For TIIEPAGESDNPLRFTSNLVVALD [G18N], the protein stability index was 2.99.
TIIEPAGESDNPLRFTSCLVVALD [G18C] gave a protein stability index of 1.66.
With TIIEPAGESDNPLRFTSYLVVALD [G18Y] the protein stability index was 1.89.
Variant TIIEPAGESDNPLRFTSWLVVALD [G18W] has a protein stability index of 2.09.
Variant TIIEPAGESDNPLRFTSGLRVALD [V20R] has a protein stability index of 3.38.
For TIIEPAGESDNPLRFTSGLYVALD [V20Y], the protein stability index was 2.44.
With TIIEPAGESDNPLRFTSGLIVALD [V20I] the protein stability index was 2.73.
With TIIEPAGESDNPLRFTSGLQVALD [V20Q] the protein stability index was 3.91.
For TIIEPAGESDNPLRFTSGLDVALD [V20D], the protein stability index was 4.38.
TIIEPAGESDNPLRFTSGLCVALD [V20C] gave a protein stability index of 3.38.
TIIEPAGESDNPLRFTSGLEVALD [V20E] showed a protein stability index of 4.03.
Variant TIIEPAGESDNPLRFTSGLKVALD [V20K] has a protein stability index of 3.75.
TIIEPAGESDNPLRFTSGLPVALD [V20P] showed a protein stability index of 4.23.
Work on TIIEPAGESDNPLRFTSGLLVALD [V20L] yielded a protein stability index of 2.53.
TIIEPAGESDNPLRFTSGLGVALD [V20G] gave a protein stability index of 3.76.
Variant TIIEPAGESDNPLRFTSGLAVALD [V20A] has a protein stability index of 2.95.
With TIIEPAGESDNPLRFTSGLNVALD [V20N] the protein stability index was 3.46.
TIIEPAGESDNPLRFTSGLTVALD [V20T] showed a protein stability index of 3.82.
TIIEPAGESDNPLRFTSGLHVALD [V20H] showed a protein stability index of 3.28.
With TIIEPAGESDNPLRFTSGLSVALD [V20S] the protein stability index was 3.77.
In the case of TIIEPAGESDNPLRFTSGLMVALD [V20M], the protein stability index is reported as 2.59.
Work on TIIEPAGESDNPLRFTSGLWVALD [V20W] yielded a protein stability index of 2.68.
In the case of TIIEPAGESDNPLRFTSGLFVALD [V20F], the protein stability index is reported as 2.31.
For TIIEPAGESDNPLRFTSGSVVALD [L19S], the protein stability index was 4.77.
With TIIEPAGESDNPLRFTSGEVVALD [L19E] the protein stability index was 4.34.
Variant TIIEPAGESDNPLRFTSGDVVALD [L19D] has a protein stability index of 4.96.
Work on TIIEPAGESDNPLRFTSGGVVALD [L19G] yielded a protein stability index of 4.16.
In the case of TIIEPAGESDNPLRFTSGWVVALD [L19W], the protein stability index is reported as 1.98.
For TIIEPAGESDNPLRFTSGMVVALD [L19M], the protein stability index was 2.83.
TIIEPAGESDNPLRFTSGKVVALD [L19K] showed a protein stability index of 4.27.
With TIIEPAGESDNPLRFTSGYVVALD [L19Y] the protein stability index was 2.62.
With TIIEPAGESDNPLRFTSGCVVALD [L19C] the protein stability index was 3.95.
For TIIEPAGESDNPLRFTSGHVVALD [L19H], the protein stability index was 3.59.
In the case of TIIEPAGESDNPLRFTSGTVVALD [L19T], the protein stability index is reported as 4.16.
With TIIEPAGESDNPLRFTSGFVVALD [L19F] the protein stability index was 2.38.
Variant TIIEPAGESDNPLRFTSGQVVALD [L19Q] has a protein stability index of 4.05.
Variant TIIEPAGESDNPLRFTSGRVVALD [L19R] has a protein stability index of 4.01.
For TIIEPAGESDNPLRFTSGAVVALD [L19A], the protein stability index was 4.01.
TIIEPAGESDNPLRFTSGNVVALD [L19N] gave a protein stability index of 4.11.
In the case of TIIEPAGESDNPLRFTSGPVVALD [L19P], the protein stability index is reported as 3.72.
Variant TIIEPAGESDNPLRFTSGIVVALD [L19I] has a protein stability index of 2.71.
With TIIEPAGESDNPLRFTSGVVVALD [L19V] the protein stability index was 3.33.
